# Results taken from the RNAGym collection of RNA variant scans (doi:10.1073/pnas.2313332121).
# B1: TPR t1 (parent)
# chain: GACCAAUCUGCCCUCAGAGCUCGAGAACAUCUUCGGAUGCAGAGGAGGCAGGCUUCGGUGGCGCGAUAGCGCCAACGUCCUCAACCUCCAAUGCAUCCCACCACAUGAUGAUGCCUGAAGAGCCUUGGUUUUUUG
# Variants of: B1
# Assay: polymerase ribozyme fitness, log enrichment relative to wild type (log ratio); higher = more active; in vitro selection for triplet polymerase activity
# Method in brief: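 Fitness compares each genotype's enrichment to that of the wild type on a logarithmic scale, averaging replicates with inverse-variance weights. The logarithm is base 2. Enrichment came from Illumina sequencing of input and output libraries after one triplicate round of in vitro selection, which included frozen incubation at −7 °C, of PCR-built, transcribed mutant libraries of each subunit of a heterodimeric triplet polymerase ribozyme. Only genotypes with ≥10 input reads and ≥1 read per output were kept.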
row,Variant,polymerase ribozyme fitness (log ratio)
1,GAUCAAUCUGCCCUCAGAGCUCGAGAACAUCUUCGGAUGCAGAGGAGGCAGGCUUGGGUGGCGCGAUAGCGCCAACGUCCUCAACCUCCAAUGCAUCCCACCACAUGAUGAUGCCUGAAGAGCCUUGGUUUUUUG,-0.409
2,GACCAAUCUGCCCUCAGAGCUCGAGAACAUCUUCGCAUGCAGAGCAGGCAGGCUUCGGUGGCGCGAUAGCGCCAACGUCCUCAACCUCCAAUGCAUCUCACCACAUGAUGAUGCCUGAAGAGCCUUGGUUUUUUG,-3.33
3,GACCAAUCUGCCCUCAGAGCUCGAGAACAUCUUCGGAUGCAGAGGAGACAGGCUUCGGUGGCGCGAUAGCGCCAACGUCCUCAACCUCCAAUGCAUCCCACCACAUGAUGAUGCCUGAAGAGCUUUGGUUUUUUG,1.15
4,GACCAAUCUGCCCUCAGAGCUCGAGAACAUGUUCGGAUUCAGAGGAGGCAGGCUUCGGUGGCGCGAUAGCGACAACGUCCUCAACCUCCAAUGCAUCCCACCACAAGAUGAUGCCUGAAUAGCCUUGGUUUUUUG,-6.88
5,GACCAAUCUGCCCUCAGAGCUCGAGAACAUCUUCGGAUGCAGAGGAGGCAGGCUUCGGUGGCGCGAUAGCGCUAACGUCCUCAACCUCCAAUGCAUCCCACCACCUGAUGAUGCCUGAUGAGCCUUGAUUUUUUG,-3.98
6,GACCAAUCUGCCCUCAGAGCUCGAGAACAUCUUCGGAUGCAGAGGAGGCAGGCUUCGGUGGUGCGAUAGCGCCAACGUCCUCAACCUCCAAUGCAUCCCACCACAUGAUGAUGCCUGAAAAGCCUUGGUUUUUUG,1.09
7,GACCAAUCUGCCCGCAGAGCUCGAGAACAUCUUCGGAUGCAGAGAAGGCAGGCUUCGGUGGCGCGAUAGCGCCAACGUCCUCAACCUCCAAUGCAUCCCACUACAUGAUGAUGCCUGAAGAGCCUUGGUUUUUUG,-5.41
8,GACCAAUCUGCCCUGAGAGCUCGAGAACGUCUUCGGAUGCAGAGGAGGCAGGCUUCGGUGGCGUGAUAGCGCCAAGGUCCUCAACCUCCAAUGCAUCCUACCACAUGAUGAAGCCUGAAGAGCCUUGGUUUUUUG,-6.38
9,GACCAAUCAGCCCUCAGAGCUCGAGAACAUCUUCGGAUGCAGAGGAGGCAGGCUUCGGUGGCGCGAUAGCGCCAACGUCCUCAACCUCCAAUGCAUGCCACCACGUGAUGAUGCUUAAAGAGCCUUGGUUUUUUG,-7.76
10,GACCAAUCUGCCCUCAGAGCUCGAGAACAUCUUCGGAUGCUGAGCAGGCAGGCUUCGGUGGCGCGAUAGCGCCAACGUCCUCAACCUCCAAUGCAUCCCACCACAUGAUGAUGACUGAAGAGCCUUGGUUUUUUG,-4.37
11,GACUAAUCUGCCCUCAGAGCUCGAGAACAUCUUAGGAUGCAGAGGAGGCAGGCUUCGGUGGCGCGAUAGCGCCAACGUCCUCAACCUCCCAUGCAUCCCACCACAUGAUGAUGGCUGAAGAGCCUUGGUUUUUUA,-5.15
12,GACCAAUCUGCCCUCAGAGCUCGAGAACAUCUUCGGAUGCAGAGGAGGCAGGCUUCGAUGGCGCGAUAGCGCCAACGUCCUCAACCUCCAAUGCAUCCCACCACAUGAUGAUGCCUGAAGAGGCUUGGUUUUUUG,2.11
13,GACCAAUCCGCCCUCAGAACUCGAGAACAUCUUCGGAUGCAGAGGAGGCAGGCUUCGGUGGCGCGAUAGCGCCAACGUCCUCAACCUCCAAUGCAUCCCACCACAUGAUGAUGCCUGAAGAGCCUUGGUUUUUUG,-1.95
14,GACCAAAAUGUCCUCAGAGCUCGAGAACAUCUUUGGAUGCAGAGGAGUCAGGAUUCGGUGGCGCGAUAGCGACAACGUCCUCAACCUCCAAUGCAUCCCACCACAUGAUGAUGCCUGAAGAGCCUUGGUUUUUUG,-5.13
15,GACCAAUCUGACCUCAGAGCUCGAGAACAUCUUCGGAUGCAGAGGAGGCAGGCUUCGGUGGCUCGAUAGCGCCAACGUCCUCAACCUCCAAUGCAUCCCACCACAUGAUGAUGCCUGAAGAGCCUUGGUUUUUUG,-1.77
16,GACCAAUCUGCCCUCAAAGCUCGAGAACAUCUUCGGAUGCAGAGGAGGCAGGCUUCGGUGGCGCGAUAGCGCCAACGUUCUCAACCUCCAAUGCAUCCCACCACAAGAUGCUGCCUGAAGAGCCUUGGUUUUUUG,-4.21
17,GACCAAUCUGCCCUCAGAGCUCGAGAACAUCUUCGGAUGCAGAGGAGGCAGGCUUCGGUGGCGCGAUAGCGCCAACGUCCUCCCCCUCCAAUGCAUCCCACCACAUGAUGAUGCCUGAGGAGCCUUGGUUUUUUG,0.957
18,GACCAAUCUGCCCUCAGAGCUCGAGAACAUCUUCGGAUGCAGAGGAGGCAGGCUUCGGUGGCGCGAUAGCGCCAACGUCGUCAACCUCCAAUGCAUCCCACCACAUGAUGAUGCCUGAAGAGCCUUUGUUUUUUG,-6.14
19,GACCAAUCUGCCCUCAGAGCUCGAGAACAUCUUCGGAUGCAGAGGAGGCAGGCUUCGGUGGGGCGAUAGCGCCAACGUCCUUAACCUCCAAUGCAUCCCACCACAUGAUGAUGCCUCAAGAGCCUUGGUUUUUUG,-5.97
20,GACCAAUCUGCCCUCAGAGCUCGAGAACAUCUUCGGAUGCAGAGGAGGCAGGCUUUGGUGGCGCGAUAGCGCCAACGUCCUCAACCUCCUAUGCAUCCCACCACAUGAUGAUGCCUGAAGAGCCUUGGUUUUUUG,-0.55
21,GACCAAUCUGUCCUCAGAGCUCGAGAACAUCUUCGGAGGCAGAGGAGGCAGGCUUCUGUGGCGCGAUACCGCCGACGUCCUCAACCUCCAAUGCAUCCCACCACAUGAUAAUGCCUGAAGAGCCUUGGUUUUUUG,-7.09
